# The nanobody polyreactivity screen of Harvey et al. (2022)
# Assay: yeast display, Sf9 membrane polyspecificity reagent, FACS + sequencing; frameworks hold sequencing errors
# Summary of the method: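 A synthetic nanobody library was expressed on Saccharomyces cerevisiae BJ5465 by galactose induction for 36–48 hours. The library was stained for 1 hour at 4 °C with 10% biotinylated, detergent-solubilized Sf9 membrane reagent and enriched with streptavidin microbeads before FACS. Low and high (top ~1%) gates were set on anti-HA fluorescence for expression and streptavidin fluorescence for reagent binding, and each polyreactivity label reflects the gate of origin.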
row,Sequence,polyreactivity (PSR sort gate)
1,QVQLVESGGGLVQAGGSLRLSCAASGFTFYVNAMGWYRQAPGKEREFVAAISSSGASTRYADSVKGRFTISRDNAKNTVYLQMNSLKPEDTAVYYCAADAPAWILEAYGYWGQGTQVTVSS,low polyreactivity
2,QVQLVESGGGLVQAGGSLRLSCAASGLTFDRYAMGWYRQAPGKERELVAAISGSGSSTYYADSAKGRFTISRDNAKNTVYLQMNSLKPEDTAVYYCAADRDLGYDTRYNYWGQGTQVTVSS,low polyreactivity
3,QVQLVESGGGLVQAGGSLRLSCAASGSTLGYYAMGWYRQAPGKERELVAAIRYSDGNTYYADSVKGRFTISRDNAKNTVYLQMNSLKPEDTAVYYCAARRGRSFRGVFYPFEYWGQGTQVTVSS,high polyreactivity
4,QVQLVESGGGLVQAGGSLRLSCAASGRTFASYAMGWYRQAPGKERELVASIRYSGGSTHYADSVKGRFTISRDNAKNPVYLQMNSLKPEDTAVYYCNARPKFRTYNYWGQGTQVTVSS,high polyreactivity
5,QVQLVESGGGLVQAGGSLRLSCAASGSIFRNYAMGWYRQAPGKERELVAVITYSGGNTYYADSVKGRFTISRDIAKNTVYLQMNSLKPEDSAVYYCAADYLVVAYGYRYLRHYYWGQGTQVTVSS,high polyreactivity
6,QVQLVESGGGLVQAGGSLRLSCAASGRTLSNYAMGWYRQAPGKERELVAAISSSGSTNYADSVKGRFTISRDNAKNTVYLQMNSLKPEDTAVYYCAAESWFLRWYRYDYWGQGTQVTVSS,low polyreactivity
7,QVQLVESGGGLVQAGGSLRLSCAASGSTFESYAMGWYRQAHGKERELVASISRSGGTTFYADSVKGRFTISRDNAKNTVYLQMNSLKPEDTAVYYCAAKRRRLGGDYWGQGTQVTVSS,high polyreactivity
8,QVQLVESGGGLVQAGGSLRLSCAATGFIFGYYALGGYRQAPGKERELVAAINKNGGSTYYADSVKGRFTISRDNAKNTVYLQMNSLKPEDTAVYYCAARARGYAWTYDYWGQGTQVTVSS,high polyreactivity
9,QVQLVESGGGLVQAGGSLRLSCAASGSIFGTNVMGWYRQAPGKERELVAAITASGSRTYYADSVKGRFTISRDNAKNTVYLQMNSLKPEDTAVYYCATVSRFGFKDFDYWGQGTQVTVSS,high polyreactivity
10,QVQLVESGGGLVQAGGSLRLSCAASGRTFNKYAMGWYRQAPGKERELVAAINTSGGSTYYADSVKGRFTISRDNAKNTVYLQMNSLKPEDTAVYYCAAQSRSVYGRSYGYWGQGTQVTVSS,high polyreactivity
11,QVQLVESGGGLVQAGRSLRLSCAASGFTFSWYTMGWYRQAPGKERELVAAISSSGGNTYYADSVKGRFTISRDNAKNTVYLQMNSLKPEDNAVYYCVARFGSYGYYYWGQGTQVTVSS,high polyreactivity
12,QVQLVESGGGLVQAGGSLRLSCAASGLILRYNGMGWYRQAPGKERELVAAISSNAGTTSYADSVKGRFTISRDNAKNTVYLQMNSLKPEDTAVYWGQGTQVTVSS,low polyreactivity
13,QVQLVESGGGLVQAGGSLRLSCAASGLTFYRYTMGWYRQAPGKERELVAAIRSSGGRTYYADSVKGRFTISRDNAKNTVYLQKNSLKPEDTAVYYCNAVRYNSVGYVYWGQGTQVTVSS,high polyreactivity
14,QVQLVESGGGLVQAGGSLRLSCAASGSTIRDYAMGWYRQAPGKERELVAVIDNSGGRTYYADSVKGRFTISRDNAKNTVYLQMNSLKAEDTAVYYCNTRRIAQYGYWGQGTQVTVSS,high polyreactivity
15,QVQRVESGGGLVQAGGSLRLSCAASGLILVPNTMGWYRQAPGKVRELVAAISYSGGGTYYADAVKGRFTISRDNAKNTVYLQMNSLKPEETAVYDCAAYVKRESAPYGYWGQGTQVTVSS,low polyreactivity
16,QVQLVESGGGLVQAGGSLRLSCAASGNIFGKNVMGWYRQAPGKEREFVAAITSRGGRTNYADSVKGRFTISRDNAKNTVYLQMNSLKPEDTAVYYCATRYKSPSFDYWGQGTQVTVSS,high polyreactivity
17,QVQHEESRGGLVQAGGSLRLSCAASVRTFSVNAMGRYRQAPGKEREFVAVISSNGGSTYYADSVKGRFTISLDNAKNTVYLQMNSLKPEDTAVYYCNARYWRGWGGRVSKYGYWGHGTQVTVSS,high polyreactivity
18,QVQLVESGGGLVQAGGSLRLSCAASGRIFGGYAMGWYRQAPGKEREFVAAITTSGGSTYYADSVKGRFTISRDNAKNTVYFQMNSLKPEDTAVYYCAARGYIPARFVSLVYRYYYWGQGTQVTVSS,high polyreactivity
19,QVQLVESGVGLFQAGGSLRLSCAASGRIFTLYTMGWYRQAPGKEREFVAALSRTGGRTYYADSVKGRFTISRDNAKNTVYLQMNSLKPEDTAVYYCAARSQSYTTHRYYYWGQGSQVTVSS,high polyreactivity
20,QVQLVESGGGLVQAGCSLRLSCAASGITVYDYDMGWYRQAPGKERELVAAITWNGGSTYYADSVKGRFTISRDNAKNTVYLQMNSLKPEDTAVYYCAAESYYIYDYWGQGTQVTVSS,high polyreactivity
21,QVQLVESGGGLVQAGGSLRLSCAASGFIFGHYAMGWYRQAPGKERELVAAIRSRGGDRTYADSVKGRFTISRDNAKNTVYLQMNSLKPEDTAVYYCAADGPGTSEDDYWGQGTQVTVSS,high polyreactivity
22,QVQLVESGGGLVQAGGSLRLSCAASGRTIGPYAMGWYRQAPGKERELVAAISGGGSTNYADSVKGRFTISRDNAKNTVSLQMKSLKPEDTAVYYCNTEYPISGEEEYWGQGTQVTVSS,low polyreactivity

row,Sequence,polyreactivity (PSR sort gate)
1,QFQLVESGGGLVQAGGSLRLSCAASGIIDGNARGWYRQAPGKEREFVATISVNDGNTYYADSVKGRFTISRDNAKNTVYLQMNSLKPEDTAVSYCATPTVYVPIPDLGDYWGQGTQVTVSS,low polyreactivity
2,QVQIVESGGGLVQAGGSLRLSCAASGSIFITYAMGWYRPAPGKERELVAAIRDSGDRTYYADSVKGRFTISRDNAKNTVYLQMNSLKPEDTAVYYCNARWQEPLKYDYWGQGTQVTVSS,low polyreactivity
3,QVQLVESGGGLVQSGGSLRLSCAASGIIFSDYAMGWYRQAPGKERELVATITRSVRTSYADSVKGRFTISRDNAKNTVYLQMNSLKPEDTAVYYCNADVVGAVIAYDYWGQGTQVTVSS,low polyreactivity
4,QVQLVESGGGLVQAGGSLRLSCAASGRIFWYNAMGWYRQAPGKERELVAVISTRGGRTYYADSVKGRFTISRDNAKNTVYLQMNSLKPEDTAVYYCAAEFLNKAVGGVTSIYDSWGQGTQVTVSS,low polyreactivity
5,QVQLVESGGGLVQAGGSLRLSCAASGFTFGHYVMGWYRQAPGKERELVAAITLSGGGTYYADSVKGRFTISRDNAKNTVYLQMNSLKTEDTAVYYCAAVRRAEEFDYWGQGTQVTVSS,low polyreactivity
6,QVQLVESGGGLVQAGGSLRLSCAASGSTFTYYAMGWYRQAPGKERELVAAITSSGSTNYADSVKGRFTISRDNAKNTVYLQMNSLKPEDTAVYYCNAVSKWAIYDYWGQGTQVTVSS,high polyreactivity
7,QVQLVESGGGLVQAGGSLRLSCAASGRTFWDYAMGWYRQAPGKEREFVAAINTSGGRTYYADSVKGRFTISRDNAKNTVYLQMNSLKPEDTAVYYCAARTRDRAYDSWGQGTQVTVSS,high polyreactivity
8,QDKLVESGGGLVQAGGSLRLSCAPSGSIFYGYAMGWYRQAPGKESELVAAMSSTGGTTYYADSVKGRFTISRDNAKNTVYLQMNSQKPEDTAVYYCAKRGRTWRYPFDYWGQGTQVTVSS,high polyreactivity
9,QDQLVESGGGLVQAGGSLRLSCAASGRIFGYYTMGWSRPAPGKERELVAGITRRGGRTYYADSVKGRFTISRDNAKNTVYLQMNSLKPEDTGVYYCAVRSGVNFYYWGQGTQVTVSS,high polyreactivity
10,QVQLVESGVVLVQAGGSLRLSCAASGSTFVRYAMGWYRQAPGKERELVAANSRSGGRTYYADSVKGRFTISRDNAKHTVYLQMNSLKPEDTAVYYCYPYYIASTFDYWGQGTQVTVSS,high polyreactivity
11,QDQLVESGRGLVQAGGSLRLSCAASGFIFYNYAMGWYIQAPGKERELVAAISASGGRTYFADSVQGRFTISRDNAKNTVYLQMNRLKPEDTAFYYCNARVNYKGYDYWGQGTQVTVSS,high polyreactivity
12,QVQLVESGGGLVQAGGSLRLRCPASGFIFFWNTMGWYRQAPGKERELVAAISQSGDSTYYADSVKGRFTISRDSAKNTVYLQMNSLKPEDTAVYFWAADKKTITYRYDYWGLGTQVTVSS,low polyreactivity
13,QVQLVESRGGLVQAGGSLRLSCAASGFIFKTNAMGWYRQAPVKERELVAAISNSDGSTYYADSVKGRFTISRDNAKNTVYLQMNSLKPEDTAVYYCAADRTDFWPYDYWGQGTQVTVSS,low polyreactivity
14,QVQLVESGGGLVQAGGSLRLSCAASGSIFAYNAMGWYRQAPGKERELVAAISVSDGITYYADSVKGRFTISRDNAKNTVYLQMNSLKPEDTAVYYCAARTRGPYRAYDYWGQGTQVTVSS,low polyreactivity
15,QVQLEESGGRLVQAGGSLRLSCAASGRILRRYTMGWYRQAPGKETELVAAISSGGNTYYADSVKGRFTISRDNAKNTVYLQMNSLKPEDTAVDYCAARVRRYWEYDYWGQGTQVTVSS,low polyreactivity
16,QVQLVESVGGLVQAGGSLRLICAASGSTIFYNAMGWYRQAPGKERELVAAISWSGGRTYYADSVKGRFTISRDNAKNTVYLQMYRLKPEDNAVYYCNTVVSKYYKVGFGSWGQGTQVTVSS,high polyreactivity
17,QVQLVESGGGLVQAGGSLRLSCAASGSTFYTNAMGWYRQAPGQERELVAAISASVGSTYYADSVKGRFTISRDYAKNSVYLQMNSLKPEDTAVYYCAADVWASRRYDYWGQGTQVTVSS,low polyreactivity
18,QVQLVESGGGLVQAGGSLRLSCAASGSTSDSNAMGWSRQAPGKERELVAAITYSGDSTYYAYSVKGRFTISRDNAKNTVYLQMNSLKPEDTAVYYCATETYPSYEVDYWGQGTQVTVSS,low polyreactivity
19,QVQLVESGGGLVQAGGSLRLSCAASGSIFFDGNAMGWYRQAPGKERELVAAINSGGTTKYADSVKGRFTISRDNAKNTVYLQMNSLKPEDTAVYYCNAREGVFRYPVAHDYWGQGTQVTVSS,low polyreactivity
20,QVQLEESGGGLVQAGGSLRLSCAASGITFEYYAMVWYRQAPGKERELVAANDTGGSTNYADSVKGRFTISRDNAKNTVYFLMNSLKPEDTEVYYCAADWSWWDGEDYHFEYDYWGQGTQVTVSS,low polyreactivity
21,QVQIVESGGGLVQAGGSLRLSCAASGSIFGVNAMGWYRQAPGKERELVASITGGDSTNYADSVKGRFTISRDNAKNTVYLQMNSLKPEDTAVYYCAKDHYYRYEEGDYWGQGTQVTVSS,low polyreactivity
